Reference: US20130136748A1 (Ablynx, published 2013)
Substitutions are numbered along the chain they refer to. In names and notes the source's numbering stands.

Columns and labels:
[1] = target: T1, hHER3 full length (human, UniProt P21860 20-1342); experiment: cell-based or functional assay
[2] = target: T2, human HER3-Fc (R&D Systems, 348-RB) (human, UniProt P21860 20-643); experiment: HRG competition alphascreen
T2 construct: Bought; also called hHER3-Fc; Fc-HER3; Fc part of the bought chimera not given, not described

[3] = target: T2, human HER3-Fc (R&D Systems, 348-RB); experiment: HRG competition alphascreen; remark: listed apart in the source
[4] = target: T1, hHER3 full length; experiment: FACS, 400 nM, competitor 04C07-biotin
[5] = target: T3, Chimeric chicken Her3-human domain 1 (AA1-206 human, AA207-642 chicken) (chicken/human chimera); experiment: FACS, HEK293 with chimeric HER3
T3 construct: Transmembrane and extracellular regions, on HEK293 cells
T3 chain: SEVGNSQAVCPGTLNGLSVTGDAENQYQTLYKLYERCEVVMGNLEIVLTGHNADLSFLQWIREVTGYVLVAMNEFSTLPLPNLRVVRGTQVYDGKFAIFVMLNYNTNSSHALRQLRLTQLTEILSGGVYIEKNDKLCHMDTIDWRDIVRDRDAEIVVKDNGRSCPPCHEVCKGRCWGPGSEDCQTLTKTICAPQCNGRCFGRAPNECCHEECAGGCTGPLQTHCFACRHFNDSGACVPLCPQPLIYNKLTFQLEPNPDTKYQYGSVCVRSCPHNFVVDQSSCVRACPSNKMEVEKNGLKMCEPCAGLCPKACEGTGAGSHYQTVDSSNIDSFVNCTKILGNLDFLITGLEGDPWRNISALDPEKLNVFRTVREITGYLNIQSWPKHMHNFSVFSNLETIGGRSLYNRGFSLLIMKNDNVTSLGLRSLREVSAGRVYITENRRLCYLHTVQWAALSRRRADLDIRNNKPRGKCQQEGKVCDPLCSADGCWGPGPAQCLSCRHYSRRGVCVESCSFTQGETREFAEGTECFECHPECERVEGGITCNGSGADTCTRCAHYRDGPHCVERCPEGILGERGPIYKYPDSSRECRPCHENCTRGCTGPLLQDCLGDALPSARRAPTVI

[6] = target: T4, human HER2 (human, UniProt P04626 23-1255); experiment: FACS CHO-HER2, 2000 nM
T4 construct: also called hHER2

[7] = target: T4, human HER2; experiment: FACS CHO-HER2, 222 nM
[8] = target: T1, hHER3 full length; experiment: cell-based or functional assay; remark: listed apart in the source
[9] = target: T1, hHER3 full length; experiment: FACS, 400 nM, competitor 23F05-biotin
[10] = target: T2, human HER3-Fc (R&D Systems, 348-RB); experiment: SPR, HER3-Fc captured by anti-Fc
[11] = target: T5, human HER4 (human, UniProt Q15303 26-1308); experiment: FACS, CHO-HER4
[12] = target: T1, hHER3 full length; experiment: FACS, 400 nM, competitor 17C08-biotin
[13] = target: T6, hHER3 ECD (human HER3 extracellular domain) (human, UniProt P21860 20-643); experiment: ELISA, coated hHER3-ECD
T6 construct: also called recombinant HER3-ECD

[14] = target: T7, human HER1 (human, UniProt P00533 25-1210); experiment: FACS CHO-HER1, 667 nM
T7 construct: also called EGFR; ErbB1

[15] = target: T1, hHER3 full length; experiment: FACS, 400 nM, competitor 04F10-biotin
[16] = target: T4, human HER2; experiment: FACS CHO-HER2, 667 nM
[17] = target: T7, human HER1; experiment: FACS, CHO-HER1
[18] = target: T1, hHER3 full length; experiment: FACS competition with HRG1-β1-EGF, CHO-HER3
[19] = target: T5, human HER4; experiment: FACS CHO-HER4, 667 nM
[20] = target: T7, human HER1; experiment: FACS CHO-HER1, 222 nM
[21] = target: T1, hHER3 full length; experiment: cell-based or functional assay; remark: listed apart in the source
[22] = target: T1, hHER3 full length; experiment: FACS, 400 nM, competitor 18E08-biotin
[23] = target: T7, human HER1; experiment: FACS CHO-HER1, 2000 nM
[24] = target: T8, cHER3ECD (Maccaca fascicularis HER3 extracellular domain) (Macaca fascicularis, UniProt P21860 20-643 (human entry)); experiment: ELISA, coated cHER3-ECD
T8 construct: also called cyno HER3ECD; cyno HER3-ECD
T8 chain: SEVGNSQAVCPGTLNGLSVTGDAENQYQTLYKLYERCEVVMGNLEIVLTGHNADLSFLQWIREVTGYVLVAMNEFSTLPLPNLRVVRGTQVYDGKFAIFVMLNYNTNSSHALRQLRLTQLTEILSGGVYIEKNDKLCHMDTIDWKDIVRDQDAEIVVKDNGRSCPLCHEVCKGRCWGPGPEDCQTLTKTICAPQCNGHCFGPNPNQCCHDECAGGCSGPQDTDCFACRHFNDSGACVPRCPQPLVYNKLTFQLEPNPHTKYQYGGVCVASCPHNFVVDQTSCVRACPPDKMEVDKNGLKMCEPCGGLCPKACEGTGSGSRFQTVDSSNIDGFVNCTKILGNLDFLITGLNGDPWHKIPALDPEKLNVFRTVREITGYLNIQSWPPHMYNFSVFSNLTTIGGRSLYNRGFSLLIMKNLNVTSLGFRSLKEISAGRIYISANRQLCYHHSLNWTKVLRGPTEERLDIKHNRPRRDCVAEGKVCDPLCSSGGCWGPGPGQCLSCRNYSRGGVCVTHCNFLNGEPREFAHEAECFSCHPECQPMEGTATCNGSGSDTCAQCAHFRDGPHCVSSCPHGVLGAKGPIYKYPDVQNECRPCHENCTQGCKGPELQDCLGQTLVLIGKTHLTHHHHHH

[25] = target: T4, human HER2; experiment: FACS, CHO-HER2
[26] = target: T5, human HER4; experiment: FACS CHO-HER4, 2000 nM
[27] = target: T1, hHER3 full length; experiment: FACS, 400 nM, competitor 21B02-biotin
[28] = target: T5, human HER4; experiment: FACS CHO-HER4, 222 nM
[29] = target: T2, human HER3-Fc (R&D Systems, 348-RB); experiment: HRG competition alphascreen; remark: listed apart in the source
[30] = target: T2, human HER3-Fc (R&D Systems, 348-RB); experiment: 34C07 competition alphascreen
[31] = target: T1, hHER3 full length; experiment: cell-based or functional assay; remark: listed apart in the source
[32] = target: T6, hHER3 ECD (human HER3 extracellular …); experiment: SPR off rate on HER3-ECD

T5 sequence (Q15303 26-1308 limits assumed): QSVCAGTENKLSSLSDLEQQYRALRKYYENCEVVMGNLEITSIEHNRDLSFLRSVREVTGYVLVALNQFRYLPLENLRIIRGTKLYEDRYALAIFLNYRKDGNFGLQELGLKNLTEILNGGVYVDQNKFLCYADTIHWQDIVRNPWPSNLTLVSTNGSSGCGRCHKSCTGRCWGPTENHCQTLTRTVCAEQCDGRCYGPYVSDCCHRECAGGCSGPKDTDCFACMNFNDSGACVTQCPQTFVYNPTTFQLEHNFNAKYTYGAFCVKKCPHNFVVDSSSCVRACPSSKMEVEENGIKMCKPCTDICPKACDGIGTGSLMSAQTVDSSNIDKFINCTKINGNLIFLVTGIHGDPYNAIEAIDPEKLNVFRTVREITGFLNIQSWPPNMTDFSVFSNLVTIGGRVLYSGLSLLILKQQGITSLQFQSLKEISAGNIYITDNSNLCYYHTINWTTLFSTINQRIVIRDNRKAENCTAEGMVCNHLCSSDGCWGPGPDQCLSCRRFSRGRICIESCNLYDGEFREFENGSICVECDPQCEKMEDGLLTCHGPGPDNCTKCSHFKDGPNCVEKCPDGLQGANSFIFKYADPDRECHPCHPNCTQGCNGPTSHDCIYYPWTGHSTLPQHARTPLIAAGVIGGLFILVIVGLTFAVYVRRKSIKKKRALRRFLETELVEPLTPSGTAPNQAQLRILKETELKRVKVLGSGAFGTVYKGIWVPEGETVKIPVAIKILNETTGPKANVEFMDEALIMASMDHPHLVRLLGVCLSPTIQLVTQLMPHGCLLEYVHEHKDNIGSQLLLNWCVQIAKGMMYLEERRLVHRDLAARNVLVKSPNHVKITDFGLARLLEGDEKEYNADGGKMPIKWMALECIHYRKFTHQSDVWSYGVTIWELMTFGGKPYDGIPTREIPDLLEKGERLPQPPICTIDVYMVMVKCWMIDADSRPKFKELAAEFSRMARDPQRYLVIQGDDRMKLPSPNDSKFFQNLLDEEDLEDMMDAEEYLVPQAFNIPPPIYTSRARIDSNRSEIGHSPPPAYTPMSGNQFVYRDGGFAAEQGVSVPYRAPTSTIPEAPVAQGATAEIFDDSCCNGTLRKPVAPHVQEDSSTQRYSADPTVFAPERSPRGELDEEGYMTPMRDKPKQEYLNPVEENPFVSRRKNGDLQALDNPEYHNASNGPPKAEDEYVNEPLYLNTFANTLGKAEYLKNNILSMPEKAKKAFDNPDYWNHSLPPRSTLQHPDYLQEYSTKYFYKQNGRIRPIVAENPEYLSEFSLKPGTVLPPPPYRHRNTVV

B1: HER3MS00042 (VHH)
VHH: EVQLVESGGGLVQPGGSLRLSCAASGFTFSSYPMSWVRQAPGKGPAWVSTVSPGGITTSYADSVKGRFTISRDNSKNTLYLQMNSLRPEDTAVYYCLRDLNNRGQGTLVTVSS
notes: 04C07 + A14P, A74S, K83R, Q108L; also called HER3MS0042; 04C07 basic variant
With B1 the “IC50 pHER3, HRG1-β1 stimulated MCF7” value [1] was 6.81e-09 M, the IC50 [2] was 0.31 nM and the IC50 [3] was 0.31 nM.

B2: HER3MS00043 (VHH)
VHH: B1 VHH with A46E
notes: 04C07 basic + A46E; also called HER3MS0043
Binder B2 has an IC50 [2] of 1.02 nM.

B3: HER3MS00044 (VHH)
VHH: B1 VHH with L97A
notes: 04C07 basic + L93A; also called HER3MS0044
B3 was tested, and the IC50 [2] was 1 nM.

B4: 17E08 (VHH)
VHH: EVQLVESGGGLVQPGGSLRLSCSASGSIFGLNAMGWYRQTPGKERELVAGITSITRVGSTRYADSAKGRFTISGDYAKNTVYLQMNSLKPEDTGVYYCRMSIVKSGGADYWGQGTQVTVSS
With B4 the “% competition” value [4] was 100%, the binding result [5] was “binds” and the MCF [6] was 73. For the same binder, the MCF [7] was 51, the “IC50, HRG1-β1 induced pHER3, MCF-7” value [8] was 4.51e-09 M and the “IC50, HRG1-β1 induced pHER3, MDA-MB468” value [8] was 2.46e-08 M. For the same binder, the “% competition” value [9] was 0%, the Kd [10] was 0.11 nM and the kon [10] was 363000 M⁻¹ s⁻¹. For the same binder, the binding result [11] was “no binding (tested: 2000 nM)”, the “% competition” value [12] was 0% and the EC50 [13] was 1.02 nM. The MCF [14] was 52, the “% competition” value [15] was 32% and the MCF [16] was 51. The binding result [17] was “no binding (tested: 2000 nM)”, the IC50 [18] was 75.9 nM and the MCF [19] was 117. For the same binder, the MCF [20] was 66, the “IC50, HRG1-β1 induced pAkt, MCF-7” value [21] was 5.78e-09 M and the “IC50, HRG1-β1 induced pERK1/2, MCF-7” value [21] was 2.78e-09 M. The “% competition” value [22] was 0%, the MCF [23] was 59 and the EC50 [24] was 1.15 nM. For the same binder, the binding result [25] was “no binding (tested: 2000 nM)”, the MCF [26] was 242 and the “% competition” value [27] was 5%. The MCF [28] was 110.

B5: HER3MS00046 (VHH)
VHH: EVQLVESGGGLVQPGGSLRLSCAASGRTYYLNAMGWFRQGPGKDREFVAAIDWSDGNKDYADSVKGRFTISRDNSKNTVYLQMNSLRPEDTAVYYCAADTPPWGPMIYIESYDSWGQGTLVTVSS
notes: 21F06 + A14P, A74S, K83R, Q108L; also called HER3MS0046; 21F06 basic variant
For B5, the IC50 [29] was 0.28 nM.

B6: HER3MS00047 (VHH)
VHH: B5 VHH with G40A
notes: 21F06 basic + G40A; also called HER3MS0047
With B6 the IC50 [29] was 0.21 nM.

B7: HER3MS00048 (VHH)
VHH: B5 VHH with D44E
notes: 21F06 basic + D44E; also called HER3MS0048
In the case of B7, the IC50 [29] is reported as 0.27 nM.

B8: HER3MS00123 (VHH)
VHH: EVQLVESGGGLVQPGGSLRLSCAASGSIFRINAMAWYRQAPGKQRELVAEITAGGSTNYADSVKGRFTISRDNSWNTLYLQMNSLRPEDTAVYYCNLDHYTTWDRRSAYWGQGTLVTVSS
B8 was tested, and the IC50 [30] was 7.6 nM, the “IC50 pHER3 blocking, MCF7” value [31] was 3.09e-08 M and the koff [32] was 0.00046 s⁻¹.

B9: HER3MS00124 (VHH)
VHH: B8 VHH with P87A
In the case of B9, the IC50 [30] is reported as 7.1 nM, the “IC50 pHER3 blocking, MCF7” value [31] is reported as 3.05e-08 M and the koff [32] is reported as 0.00045 s⁻¹.

B10: HER3MS00127 (VHH)
VHH: B8 VHH with E1D
With B10 the IC50 [30] was 8.5 nM, the “IC50 pHER3 blocking, MCF7” value [31] was 3.88e-08 M and the koff [32] was 0.00046 s⁻¹.

B11: HER3MS00128 (VHH)
VHH: B8 VHH with E1D, P87A
For B11, the IC50 [30] was 6.7 nM, the “IC50 pHER3 blocking, MCF7” value [31] was 4.05e-08 M and the koff [32] was 0.00046 s⁻¹.

B12: 18B05 (VHH)
VHH: EVQLVESGGGLVQAGGSLRLSCAASGLTFGSAPMGWYRQAPGKERELVAYISGDERIWYGDSVKGRFTISRDTTKNTLYLQMNSLKPEDTAVYYCVSDVKVRHWGQGTQVTVSS
B12 was tested, and the “% competition” value [4] was 98%, the binding result [5] was “binds” and the MCF [6] was 77. For the same binder, the MCF [7] was 61, the “IC50, HRG1-β1 induced pHER3, MCF-7” value [8] was 5.18e-09 M and the “IC50, HRG1-β1 induced pHER3, MDA-MB468” value [8] was 3e-08 M. For the same binder, the “% competition” value [9] was 0%, the Kd [10] was 0.29 nM and the kon [10] was 490000 M⁻¹ s⁻¹. The binding result [11] was “no binding (tested: 2000 nM)”, the “% competition” value [12] was 0% and the EC50 [13] was 0.4 nM. The MCF [14] was 101, the “% competition” value [15] was 31% and the MCF [16] was 63. For the same binder, the binding result [17] was “no binding (tested: 2000 nM)”, the IC50 [18] was 16.1 nM and the MCF [19] was 95. The MCF [20] was 82, the “IC50, HRG1-β1 induced pAkt, MCF-7” value [21] was 6.02e-09 M and the “inhibition of HRG1-β1 induced pERK1/2, MCF-7” value [21] was under 50 % inhibition. For the same binder, the “% competition” value [22] was 0%, the MCF [23] was 61 and the EC50 [24] was 0.45 nM. The binding result [25] was “no binding (tested: 2000 nM)”, the MCF [26] was 96 and the “% competition” value [27] was 0%. For the same binder, the MCF [28] was 60.
